The target in assay [1] is T1, biotinylated human NKG2C/CD94 heterodimer (extracellular domains, Fc fusions) (human, UniProt P26717 94-231; Q13241 32-179, biotinylated).
T1 construct: not shown: N-terminal Fc (hole)
Briefly: BLI (Octet), summary of the examples. Here is the method:
The antibodies were evaluated for binding to (1) human NKG2A, (2) human NKG2C, and (3) cyno NKG2A. Bivalent interaction of binders to biotinylated human NKG2A (see Example 1), biotinylated human NKG2C/CD94 heterodimer, or biotinylated cyno NKG2A/CD94 heterodimer immobilized on a streptavidin biosensor was monitored using Octet (Pall ForteBio) instrument. For these assays, human NKG2C/CD94 and cyno NKG2A/CD94 were prepared using the procedure as described in Example 1. Similarly, the extracellular domain of human NKG2C was expressed and purified from HEK293 cells as heterodimer with CD94 as Fc fusions. The extracellular domain of NKG2C used for selection campaigns encompassed amino acid sequence Ile94-Leu231 (Accession No. P26717-1; SEQ ID NO: 75). The gene encoding CD94 (Accession No. Q13241-1, SEQ ID NO:76), Lys33-Ile159 was synthesized from IDT and cloned into mammalian expression vector as an N-terminal Fc (hole) fusion. Plasmids encoding NKG2C-Fc fusion and CD94-Fc fusion were co-transfected into HEK293T cells using standard procedures. NKG2C/CD94 heterodimer was purified from cell supernatant using Protein A resins. Similar approach was used to obtain Cynomolgus NKG2A protein. Specifically, extracellular domain of Cynomolgus NKG2A contained amino acid Pro 94-Leu 233. […]

Assay [2] addresses T2, NKG2A expressed on KHYG-1 cells (endogenous) (human, UniProt P26715 1-233; Q13241 1-179).
T2 construct: whole, on cells; Surface NKG2A copy number of approximately 10-20K; also called KHYG-1 cells expressing endogenous NKG2A; NKG2A-expressing cells
As to the kind of experiment: flow cytometry on KHYG-1 cells expressing endogenous NKG2A. The protocol: Antibodies that were selected for binding to NKG2A, for example, such as those described in Examples 1 and 2, were evaluated for binding to cells that express NKG2A.
Cells were harvested at 70-90% confluence on the day of the assay. Cells were collected by centrifugation at 200×g for 5 minutes and media was removed. Cells were resuspended at 2×10⁶ cells per mL in cold PBS. […] 50 μL per well of the antibody dilution was plated in a 96 well V-bottom plate (Costar 3897). 50 μL per well of cell suspension was added. Plates were placed at 4° C. for 45-60 minutes.

Assay [3] deals with T3, biotinylated cyno NKG2A/CD94 heterodimer (extracellular domains) (cynomolgus, UniProt Q9MZJ3 94-233; Q9MZK9 32-179, biotinylated).
T3 construct: also called Cynomolgus NKG2A protein; not shown: fusion partner/tags ('similar approach' to the human proteins); fusion partner ('similar approach')
T3 sequence (Q9MZJ3 other isoform, or with tags, fused parts or gaps, chain 1 of 2): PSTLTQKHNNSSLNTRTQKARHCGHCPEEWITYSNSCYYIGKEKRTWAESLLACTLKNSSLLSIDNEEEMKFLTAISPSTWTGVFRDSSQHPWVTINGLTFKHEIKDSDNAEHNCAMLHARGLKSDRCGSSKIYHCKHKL
T3 sequence (Q9MZK9 32-179, chain 2 of 2): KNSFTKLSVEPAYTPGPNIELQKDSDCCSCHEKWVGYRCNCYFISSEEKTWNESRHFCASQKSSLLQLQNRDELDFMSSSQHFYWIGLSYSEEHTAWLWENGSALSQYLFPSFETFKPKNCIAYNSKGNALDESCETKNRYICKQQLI
As to the kind of experiment: BLI (Octet), bivalent. The protocol:
A total of 58 binders formatted as IgG antibodies from phage display as described in Example 1 were further tested for binding.
The antibodies were evaluated for binding to (1) human NKG2A, (2) human NKG2C, and (3) cyno NKG2A. Bivalent interaction of binders to biotinylated human NKG2A (see Example 1), biotinylated human NKG2C/CD94 heterodimer, or biotinylated cyno NKG2A/CD94 heterodimer immobilized on a streptavidin biosensor was monitored using Octet (Pall ForteBio) instrument. For these assays, human NKG2C/CD94 and cyno NKG2A/CD94 were prepared using the procedure as described in Example 1. Similarly, the extracellular domain of human NKG2C was expressed and purified from HEK293 cells as heterodimer with CD94 as Fc fusions. The extracellular domain of NKG2C used for selection campaigns encompassed amino acid sequence Ile94-Leu231 (Accession No. P26717-1; SEQ ID NO: 75). The gene encoding CD94 (Accession No. Q13241-1, SEQ ID NO:76), Lys33-Ile159 was synthesized from IDT and cloned into mammalian expression vector as an N-terminal Fc (hole) fusion. Plasmids encoding NKG2C-Fc fusion and CD94-Fc fusion were co-transfected into HEK293T cells using standard procedures. NKG2C/CD94 heterodimer was purified from cell supernatant using Protein A resins. Similar approach was used to obtain Cynomolgus NKG2A protein. Specifically, extracellular domain of Cynomolgus NKG2A contained amino acid Pro 94-Leu 233. […] Extracellular domain of Cynomolgus CD94 contained amino acid residues Lys 33-Ile 179 (Accession No. Q68VD4-1; SEQ ID NO: 78).

T2 sequence (P26715 whole entry, chain 1 of 2): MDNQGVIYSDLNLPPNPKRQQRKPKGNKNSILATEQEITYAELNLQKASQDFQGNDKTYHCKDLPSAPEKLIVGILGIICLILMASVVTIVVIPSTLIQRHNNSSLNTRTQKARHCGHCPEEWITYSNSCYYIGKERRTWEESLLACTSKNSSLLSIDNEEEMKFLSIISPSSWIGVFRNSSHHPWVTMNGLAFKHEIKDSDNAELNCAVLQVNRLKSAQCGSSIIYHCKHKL
T2 sequence (Q13241 whole entry, chain 2 of 2): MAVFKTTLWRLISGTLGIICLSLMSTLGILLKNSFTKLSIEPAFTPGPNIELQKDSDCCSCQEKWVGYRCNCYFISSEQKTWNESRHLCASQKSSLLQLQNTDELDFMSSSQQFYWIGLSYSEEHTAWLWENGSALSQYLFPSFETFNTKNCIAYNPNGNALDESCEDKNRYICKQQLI
T1 sequence (P26717 other isoform, or with tags, fused parts or gaps, chain 1 of 2): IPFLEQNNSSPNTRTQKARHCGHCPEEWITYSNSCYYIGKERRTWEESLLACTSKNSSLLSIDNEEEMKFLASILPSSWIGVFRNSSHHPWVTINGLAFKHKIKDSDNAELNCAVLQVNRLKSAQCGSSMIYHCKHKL
T1 sequence (Q13241 32-179, chain 2 of 2): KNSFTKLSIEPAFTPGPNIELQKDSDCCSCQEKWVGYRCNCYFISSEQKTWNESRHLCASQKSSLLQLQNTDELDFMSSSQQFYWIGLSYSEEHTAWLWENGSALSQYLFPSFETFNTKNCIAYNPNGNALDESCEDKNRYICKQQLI

B1: Antibody Clone A3 (antibody, human IgG1, kappa, V domains shown)
VH: EVQLVESGGGLVQPGGSLRLSCAASGFTFSSYYIHWVRQAPGKGLEWVASISPYDGYTDYADSVKGRFTISADTSKNTAYLQMNSLRAEDTAVYYCARSSDFSPWTSSGGMDYWGQGTLVTVSS
VL: DIQMTQSPSSLSASVGDRVTITCRASQSVSSAVAWYQQKPGKAPKLLIYSASSLYSGVPSRFSGSRSGTDFTLTISSLQPEDFATYYCQQYGSSLRTFGQGTKVEIKR
Take B1: the binding result in assay [1] was “no binding”. For the same molecule, the EC50 in assay [2] is 0.303 nM.

B2: Antibody Clone A2 (antibody, human IgG1, kappa, V domains shown)
VH: EVQLVESGGGLVQPGGSLRLSCAASGFTFSSYYIHWVRQAPGKGLEWVASYVPEDGYTDYADSVKGRFTISADTSKNTAYLQMNSLRAEDTAVYYCARSSDFIPWTSSGGMDYWGQGTLVTVSS
VL: DIQMTQSPSSLSASVGDRVTITCRASQSVSRAVAWYQQKPGKAPKLLIYSASSLHSGVPSRFSGSRSGTDFTLTISSLQPEDFATYYCQQYGSSARTFGQGTKVEIKR
Regarding B2, the binding result in assay [3] and in assay [1] was “no binding” each time. Further, the EC50 in assay [2] worked out at 37.5 nM.

The values are drawn from US20260226161A1 (EXELIXIS, published 2026).
